Measurements as given in paper PMC9687680 (2022).

Columns and labels:
[1] = system: CD133 aptamer (hybrid RNA-DNA, 10-bp DNA GC stem) (DNA:RNA, aptamer, 2'-fluoro on all pyrimidines (C and U) of the RNA part; 5-methyl-dC (printed 5'-methyl-dC) in the DNA stem) CGCGCGCCGCUCCUACAUAGCGGCGCGCG; assay: ITC; details: Mg2+ 2.5 mM, PBS (Na+, K+), 25 °C, DOX 100 µM injected, aptamer 2 µM or 100 µM (supplement)
[2] = system: CD133 aptamer (hybrid RNA-DNA, 10-bp DNA GC stem) (DNA:RNA, aptamer, 2'-fluoro on all pyrimidines (C and U) of the RNA part; 5-methyl-dC (printed 5'-methyl-dC) in the DNA stem) CGCGCGCCGCUCCUACAUAGCGGCGCGCG; assay: DOX fluorescence quenching; details: DOX 10 µM, aptamer 1-10 µM, 30 min; >90% quenching at aptamer:DOX 0.27
[3] = target: T1, CD133 on PLC/PRF/5 cells (human) (UniProt O43490); assay: flow cytometry (cell binding); details: PLC/PRF/5 cells, 37 C, Aptamer folded in PBS with 2.5 mM Mg2+ (85 C 5 min, RT, 37 C 15 min), binding to cells in PBS-based blocking buffer, 30 min, CD133-negative HEK293T cells …
T1 sequence: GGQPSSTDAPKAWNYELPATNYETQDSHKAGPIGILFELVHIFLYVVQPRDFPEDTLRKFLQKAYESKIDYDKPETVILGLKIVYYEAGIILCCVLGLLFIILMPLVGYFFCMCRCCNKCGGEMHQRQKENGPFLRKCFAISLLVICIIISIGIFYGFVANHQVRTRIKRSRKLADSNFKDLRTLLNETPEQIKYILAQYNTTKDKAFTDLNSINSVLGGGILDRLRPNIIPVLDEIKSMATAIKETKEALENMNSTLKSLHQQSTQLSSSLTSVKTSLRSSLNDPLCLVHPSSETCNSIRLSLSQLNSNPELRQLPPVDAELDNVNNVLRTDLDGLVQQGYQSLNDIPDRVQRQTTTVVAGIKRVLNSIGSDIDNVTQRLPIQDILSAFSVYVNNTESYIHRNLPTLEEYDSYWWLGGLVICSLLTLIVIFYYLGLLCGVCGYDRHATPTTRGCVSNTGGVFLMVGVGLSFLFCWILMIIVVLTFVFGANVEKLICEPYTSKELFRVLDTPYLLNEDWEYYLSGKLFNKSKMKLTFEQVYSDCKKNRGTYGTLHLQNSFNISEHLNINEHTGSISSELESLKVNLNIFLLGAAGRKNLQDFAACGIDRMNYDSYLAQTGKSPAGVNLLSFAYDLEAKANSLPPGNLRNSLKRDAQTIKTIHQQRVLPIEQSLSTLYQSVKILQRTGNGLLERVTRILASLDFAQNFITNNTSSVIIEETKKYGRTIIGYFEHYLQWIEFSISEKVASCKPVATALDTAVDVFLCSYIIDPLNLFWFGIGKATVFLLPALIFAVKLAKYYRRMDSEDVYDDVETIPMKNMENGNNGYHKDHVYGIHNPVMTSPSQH

[4] = target: T2, CD133 on Huh7 cells (human) (UniProt O43490); assay: flow cytometry (cell binding); details: Huh7 cells, 37 C, Aptamer folded in PBS with 2.5 mM Mg2+ (85 C 5 min, RT, 37 C 15 min), binding to cells in PBS-based blocking buffer, 30 min, CD133-negative HEK293T cells …
T2 sequence: T1 sequence

[5] = apparent Kd, 2'-fluoro on all pyrimidines, 5-methyl-dC in stem, hexylamine cap at 3' end
[6] = 2'-O-methyl instead of 2'-fluoro on pyrimidines (C and U)

With `COc1cccc2c1C(=O)c1c(O)c3c(c(O)c1C2=O)C[C@@](O)(C(=O)CO)C[C@@H]3O[C@H]1C[C@H](N)[C@H](O)[C@H](C)O1` the KD [1] was 0.634 µM and the binding [2] was “yes”.

For “CGCGCGCCGCUCCUACAUAGCGGCGCGCG [CD133 aptamer (RNA loop, DNA GC stem)]”, the Kd [3, 5] was 0.011 µM and the Kd [4, 5] was 0.027 µM.

“CGCGCGCCGCUCCUACAUAGCGGCGCGCG [negative control CD133 aptamer (2'-OMe)]” was tested, and the Kd [3, 6] was over 1 µM and the Kd [4, 6] was over 1 µM.
